Experimental data reported in patent publication US20250221936A1, “ENGINEERED HEMICHANNELS, ENGINEERED VESICLES, AND USES THEREOF” (VIRGINIA TECH INTELLECTUAL PROPERTIES, INC., priority 2018, published 2025).
No end group written: not given here.

Assays:
[1] = tested on: EVs isolated from cow milk; assay: Milk EV loading with Calcein AM; conditions: 0.1 and 1 μM
Procedure: EVs were isolated from cow milk and loaded with neutral non-fluorescent Calcein AM (10 μM) for 48 hours at 37 C in PBS buffer at pH 8.5 (FIG. 30A). […] Purity and integrity of exosomes isolated from cow milk was confirmed by negative stain electron microscopy (EM). FIG. 30B) illustrates an exosome isolated from cow milk. Scale bar=50 nm. The methods described herein of isolation from milk were adapted to obtain high yields of EV, taking particular care not to cause rapid and/or large-scale precipitation of milk casein, as well as in centrifugation steps, which can reduce EV yields from milk.
An exemplar of these methods is shown in FIGS. 31A-31C wherein Milk EVs incubated with Calcein AM show time-(FIG. 31A), pH-(FIG. 31B) and concentration-dependent effects on uptake of Calcein by EVs. Important to this method in the case of Calcein AM, are the multiple chemical groups linked by ester bonds to the molecule, which shield it's negatively charged moieties. Cleavage of these groups by ester bond breaking activities within EVs results in Calcein becoming negatively charged, fluorescent and retained within the EV—as exemplified by the green spots seen in most figure panels in FIG. 31. In FIG. 31A EVs are illustrated that were incubated for 1, 2 or 3 hours in PBS at 37 C at pH 7.4 with Calcein AM (5 μM). […]

Connexin 43 hemichannels = Connexin 43 hemichannels (Homo sapiens, UniProt P17302); assay type: cell-based; conditions: 0.1 mM Ca^2+; Gap19 (200 μM)
Connexin 43 hemichannels, sequence (P17302 2-382 limits assumed): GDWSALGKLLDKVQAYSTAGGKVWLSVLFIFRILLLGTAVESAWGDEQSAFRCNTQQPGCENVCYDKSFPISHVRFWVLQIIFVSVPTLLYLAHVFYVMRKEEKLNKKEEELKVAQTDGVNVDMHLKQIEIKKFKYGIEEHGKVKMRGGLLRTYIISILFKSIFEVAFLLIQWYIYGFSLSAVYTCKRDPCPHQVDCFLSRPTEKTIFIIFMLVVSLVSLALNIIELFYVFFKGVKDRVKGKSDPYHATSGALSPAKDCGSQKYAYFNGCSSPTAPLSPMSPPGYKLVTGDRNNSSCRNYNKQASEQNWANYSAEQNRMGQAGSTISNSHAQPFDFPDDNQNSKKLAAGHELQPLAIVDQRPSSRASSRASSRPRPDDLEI
Procedure: Media containing 0.1 mM Ca^2+ was used to open Cx43 hemichannels in the presence of 50 μM alphaCT11 peptide and/or the hemichannel blockers; Gap19 (200 μM) and carbenoxolone ([…]).

[2] = tested on: HC (hemichannel) activity; assay: Hemichannel block in perfused hearts; set-up: species or system mouse; conditions: 2 micromolar for 20 minutes before biotin-alphaCT11 infusion
Procedure: Briefly, isolated mouse hearts were perfused with 2 micromolar carbenoxolone for 20 minutes to block HC (hemichannel) activity prior to a 20 minute infusion with biotinylated alpha CT11 (biotin-alphaCT11) according to the method described in Example 20. […] Biotinylated alpha CT11 was detected and measured on LV cryosections by streptavidin Alexa647 as noted in association with FIGS. 18A-18E.

[3] = assay type: in vitro ADME
From the text: Despite efficacy of these peptides being delivered as unprotected peptide formulations, particularly when devlivered topically, delievery via many routes can be impeaded by degredation inside the body. Many other biologic and small molecule therapeutics also suffer from similar degradeation issues. Indeed, most unprotected short peptides and polynucleotides (e.g. miRNAs) are rapidly degraded in body fluids in vivo, thereby limiting the interest of the pharmaceutical industry in such molecules. This consideration is particularly relevant in pathologic situations, such as the heart post-MI, where hypoxia, oxygen free radicals, and […] prompt upregulation of degradation pathways. […] Protection by being loaded inside of an engineered vesicle can reduce degredation and/or can facilitate delivery of the cargo by forming channels with connexons present in cell membranes. See e.g. FIG. 17.

GST-Cx43 CT = molecular target: T1, GST-Cx43 CT (Rattus norvegicus, UniProt P08050); assay: EDC cross-linking of kinase reaction mixtures, Cx43 CT; assay type: binding; conditions: 5, 10 and 25 μM
T1 construct: pGEX-6-P2 Cx43 CT amino acids 255-382; made in house; host or cells: E. coli BL21
T1 sequence (P08050 255-382): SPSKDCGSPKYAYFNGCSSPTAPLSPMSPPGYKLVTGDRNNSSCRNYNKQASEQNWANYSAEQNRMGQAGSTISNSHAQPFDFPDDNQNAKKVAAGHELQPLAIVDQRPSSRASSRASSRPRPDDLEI
Procedure: To characterize the interaction between the Cx43 CT substrate and peptides, the in vitro kinase assay was performed as above with modification and the constituents then subjected to a cross-linking reaction. The assay buffer used was 20 mM 3-(N-morpholino) propanesulfonic acid (MOPS), pH 7.2. All other reagents present in the kinase reaction were maintained as described above. The reaction was allowed to proceed at 37° C. for 15 minutes. Afterwards, the carbodiimide crosslinker 1-Ethyl-3-(3-dimethylaminopropyl) carbodiimide HCl (EDC) (Thermo, 22980) was added to each solution for a final concentration of 20 mM. The solution was allowed to cross-link for one hour at room temperature. The reaction was stopped by the addition of 4×LDS loading buffer, boiled for 5 minutes and subsequently separated by PAGE. The resulting gel was stained in Coomassie brilliant blue (Sigma, B0770) for two hours and destained in a solution of 4% methanol 7% acetic acid overnight. Gel bands were subsequently excised for mass spectrometric analysis. For the direct interaction between protein and peptides, PBS, pH 7.5 was used as the coupling buffer. The protein (50 μg/ml) and peptide (25 μM) were allowed to react at room temperature for one hour before EDAC was added to the reaction mixture. The reaction was Western blotted for Cx43, GST or NeutroAvidin. […]

ZO-1 PDZ2 = molecular target: T2, ZO-1 PDZ2 (Homo sapiens, UniProt Q07157); assay: Protein thermal shift assay, ZO-1 PDZ2; assay type: binding; conditions: 500 μg/ml protein, 25-100 μM peptide
T2 construct: the second of the three PDZ (PDZ2) domains of ZO-1; made in house; host or cells: E. coli BL21
T2 sequence (Q07157 186-264 limits assumed): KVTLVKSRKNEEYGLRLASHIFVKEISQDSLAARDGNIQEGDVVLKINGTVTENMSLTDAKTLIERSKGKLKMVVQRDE
Procedure: Thermal stability of recombinant GST-PDZ2 or Cx43 CT in the presence or absence of peptides was determined in a 96-well format. Each assay well was composed of 500 μg/ml protein, 25-100 μM of each peptide in PBS buffer, pH7.4. All assays were performed independently six times. Samples were generally prepared in 96-well plates at final volumes of 20 μL. The fluorescent dye SYPRO Orange (5000× concentrate in DMSO, ThermoFisher, S6650) was added to a final concentration of 8X. Reactions were run on QuantStudio 6 Flex Real-Time PCR system (Applied Biosystems, part of Life Technologies Corporation, CA) according to the manufacturer's recommendations using a melt protocol in 0.05-degree/see increments from 25° C. to 95° C. The Reporter Dye was “ROX” and quencher Dye and passive reference were selected as “None” for the melt curve according to manufacturer's instructions. The data were analyzed using Protein Thermal Shift™ Software v1.3 package (Applied Biosystems, CA).

Hela cells = assay: Cellular uptake of RhodB-aCT11 peptides; assay type: cell-based; conditions: 200 to 2000 μM, 30 or 90 minutes, 37 C
From the text: Cells can take up the peptide, cytoplasmic esterases will cleave the allyl groups converting the peptide to RhodB-aCT11. RhodB-aCT11-Est, or any chemically modified drug molecule designed for cell uptake using ester bonded groups or related chemical modifications, can be packaged as cargo into EVs and exported by the cell into the media. EVs loaded with cargo molecules by this method can then be isolated using standard protocols and used in the treatment and other methods detailed herein.
Monolayers of Hela cells incubated with fluorescent-tagged RhodamineB-aCT11-Est, a cell-permeant peptide with allyl groups linked by ester bonds at aspartic (D) and glutamic (E) acid residues, as well as its carboxyl terminus are shown in FIG. 34A. The cells were incubated for 30 or 90 minutes at 37 C at pH 7.4 with different concentrations of peptides between 200 and 2000 μM. […] Cellular uptake can be observed in FIG. 34A to be particularly evident following 90 minutes at higher peptide concentrations (i.e., >1000 μM). […] RhodB-aCT11-Est taken up in this manner by cells can be packaged as cargo into EVs and following isolation can these EVs be used in treatment and other methods detailed herein.

[4] = molecular target: Cx43 CT (Connexin 43 carboxyl terminus, amino acids 255 to 382) (UniProt P08050 255-382, limits assumed); assay: cell-based or functional assay
Cx43 CT (Connexin 43 carboxyl terminus, amino acids 255 to 382), sequence (P08050 255-382 limits assumed): as the sequence (P08050 255-382) above

For `O=S(=O)(F)Cc1ccccc1` [PMSF], the “Calcein uptake into and retention within milk EVs” value [1] was “respectively inhibited and blocked”.

For `CC1(C)[C@@H](OC(=O)CCC(=O)O)CC[C@]2(C)[C@H]3C(=O)C=C4[C@@H]5C[C@@](C)(C(=O)O)CC[C@]5(C)CC[C@@]4(C)[C@]3(C)CC[C@@H]12` [carbenoxolone], the “alphaCT11 uptake in presence of hemichannel blocker” value (Connexin 43 hemichannels) was “Dramatically lower levels of peptide uptake” and the “cytoplasmic levels of alpha CT11 in myocytes” value [2] was “significant reductions (p<0.05) in cytoplastic levels of alpha CT11”.

In the case of “Gap19: Cx43 hemichannel blocker (KQIEIKKFK; Gap19; UniProt P17302 128-136, looked up, fragment)”, the “alphaCT11 uptake in presence of hemichannel blocker” value (Connexin 43 hemichannels) is reported as “Dramatically lower levels of peptide uptake”.

For RPRPDDLEI [alpha CT11, RPRPDDLEI], the “time to degradation in blood serum” value [3] was “about 30 minutes”.

For “RQPKIWFPNRRKPWKK LPAARIAPR (RQPKIWFPNRRKPWKKLPAARIAPR) [M4 scram., reference compound]”, the “EDC cross-linking to Cx43 CT” value (GST-Cx43 CT) was “no evidence of cross-linking” and the “PDZ2 melt temperature (Tm)” value (ZO-1 PDZ2) was “PDZ2 interaction incompetent”.

With “RhodB-aCT11: fluorescently tagged RhodamineB aCT11 peptide (RPRPDDLEI) without ester bonded groups (also: RhodamineB label, site not given here)” the cellular uptake (Hela cells) was “little evidence for uptake of RhodB-aCT11 is observed” and the cellular uptake (Hela cells; listed as RhodamineB aCT11) was “does not indicate cellular uptake”.

In the case of RQPKIWFPNRRKPWKKRPRPDDLEI (not fully specified) [alpha CT1], the “Cx43 S368 phosphorylation (PKC-ε kinase assay, blots of pS368 over total Cx43)” value [4] is reported as about 3 fold.
